Experimental findings from the supplement of paper PMC9170038 are described below.

The subject of this data set is MS2 coat protein. Kind of data set: apparent KD of MS2 coat protein; designed switch direction (-1 OFF switch, 1 ON switch): -1; higher = weaker reporter binding. Summed up: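 Transcription of designed RNA switches on Illumina chips was done by stalled E. coli RNA polymerase. SNAP-549-labelled MS2 coat protein was then titrated in doubling steps from 0.7 or 1.5 nM to 3 µM, with steps of 0.8–1.5 h at the lowest and 10–20 min at the highest concentration. The per-design median over clusters of curve-fitted normalised fluorescence is reported as apparent KD.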

[1] abbreviates: input ligand: microRNA oligo, concentration not stated.
[2] abbreviates: Eterna round: R95, input ligand: FMN 200 uM.
Where [3] appears, read: Eterna round: R95, input ligand: microRNA oligo, concentration not stated.
[4] abbreviates: Eterna round: R95, input ligand: none.

On to “AAUACAAGCUAUUGAUCCCACAUGAGGAUCACCCAUGUAGGAGGCGGUGACACCUCCUUUACGAUAGCUCGUCUUAU [Sensor-V1 #53] (Eterna round: R97, puzzle: Sensor, turn-off variant 1)”, for which the “apparent KD of MS2 coat protein” value came out at 213 nM (input ligand: FMN 200 uM) and 219 nM (input ligand: none).

On to “AAUACAAGCUAUUGAUCCCACAUGAGGAUCACCCAUGUAUAUGCCGGUGACACCUGCAUGACGAUAGCUCGUCUUAU [Sensor-V1 #59] (Eterna round: R97, puzzle: Sensor, turn-off variant 1)”, for which the “apparent KD of MS2 coat protein” value amounted to 577 nM (input ligand: FMN 200 uM) and 758 nM (input ligand: none).

Turning to “AAUACCCUGUUAGGAUAUAAUACCGAAGGAGUAUUAGAAGGGACAGUAAGGUACAUGAGGAUCACCCAUGUGAGAAUCUGUGCC [Edanxeve] (Eterna round: R96, puzzle: Exclusion NG 1)”, the “apparent KD of MS2 coat protein” value was found to be 107 nM (input ligand: FMN 200 uM), 65.3 nM under setting [1] and 75.4 nM (input ligand: none).

With “AAUAGCAAGUAGAUCCUAAACAUGAGGAUCACCCAUGUGCUCGUCUUGUAAAGUACUAUCACGAAAGUGAUAGUACA [Sensor 3, v1 - 57] (puzzle: Sensor v3, turn-off variant 1)”, the “apparent KD of MS2 coat protein” value reads like this: under setting [2], 151 nM; under setting [3], 300 nM; under setting [4], 233 nM.

For the sequence “AAUCCACAUGAGGAUCACCCAUGUGAGGAUAUGAUACUAUGUACUUCGGUACAUAGUAUCAGAAGGCACAUAAA [Ex1-3: 51] (Eterna round: R96, puzzle: Exclusion 1)”, the “apparent KD of MS2 coat protein” value reads like this: (input ligand: FMN 200 uM) 153 nM; under setting [1], 25.8 nM; (input ligand: none) 27.8 nM.

For the sequence “AAUCCACAUGAGGAUCACCCAUGUGAGGAUAUGAUACUAUGUACUUCGGUACAUAGUAUCAGAAGGCACAUAAA [Ex1-3: 51] (puzzle: Exclusion 1)”, the “apparent KD of MS2 coat protein” value under setting [3] was found to be 28.4 nM.

For the sequence “AAUGAUUGACGAGGAUAUUGUGUUAGAUCACGACGAGAAGGCGUCUGUCACAUGAGGAUCACCCAUGUGAGCCUGGUGGAUGGG [Ex NG1 #79] (Eterna round: R96, puzzle: Exclusion NG 1)”, the “apparent KD of MS2 coat protein” value came to 41.7 nM (input ligand: FMN 200 uM), 22.3 nM under setting [1] and 26.7 nM (input ligand: none).

Regarding “AAUGAUUGAUGAGGAUAUUGUGGUGAAACACGACGAGAAGGCAUAUGUCACAUGAGGAUCACCCAUGUGAGCUUUGUGGAUAUA [Ex NG1 #67] (Eterna round: R96, puzzle: Exclusion NG 1)”, under setting [1], the “apparent KD of MS2 coat protein” value was determined as 18.3 nM.

With “AAUGCCAGAGGAUAUACAUGAGGAUCACCCAUGUUAAAUGAUCCUGUGCUAGAUGCACGUAGAAGGCUGUAAAA [EX3 A.8] (Eterna round: R97, puzzle: Exclusion 3)”, the “apparent KD of MS2 coat protein” value was found to be 15.5 nM (input ligand: FMN 200 uM) and 12.9 nM (input ligand: none).

Regarding “AAUGCCAGUGUCAGGAUAUCCGGAGGGAAACCUCCGGAGAAGGGACAUGAGGAUCACCCAUGUAUGUAACCUGC [AK-MS2ROC-r4-Bmoexclusion4-7] (Eterna round: R97, puzzle: Brourd's mod of Exclusion 4)”, the “apparent KD of MS2 coat protein” value (input ligand: FMN 200 uM) amounted to 35.2 nM and the “apparent KD of MS2 coat protein” value (input ligand: none) turned out to be 23.6 nM.

“AAUGGUAAAGUCAGGAUAUACGUAAAUCGUUCUAGGUAGAAGGGACAUGAGGAUCACCCAUGUAUGAUAGUAAA [Ex4 #32] (Eterna round: R97, puzzle: Brourd's mod of Exclusion 4)”: the “apparent KD of MS2 coat protein” value runs as follows: (input ligand: FMN 200 uM) 31.9 nM; (input ligand: none) 35.4 nM.

For “AAUGGUAAAGUCAGGAUAUACGUACGUCGUUCUAGGUAGAAGGGACAUGAGGAUCACCCAUGUAUGAUAGUAAA [Ex4 #34] (Eterna round: R97, puzzle: Brourd's mod of Exclusion 4)”, the “apparent KD of MS2 coat protein” value reads like this: (input ligand: FMN 200 uM) 24.1 nM; (input ligand: none) 32.9 nM.

For the sequence “AAUGUGUGAGGAUAUUAAUUGUAAUUGAAUAGAAUUAUGAUUGAGAAGGCACAUGAGGAUCACCCAUGUUCCAA [JR_Ex4_Sub082] (Eterna round: R97, puzzle: Exclusion 4)”, the “apparent KD of MS2 coat protein” value reads like this: (input ligand: FMN 200 uM) 187 nM; (input ligand: none) 31.2 nM.

In the case of “AAUGUUUGAUACCUUUAAUACAUGAGGAUCACCCAUGUUAUCGAGGAUAUGUAGAUGAAAUGAGAACAGAAGGCGAAGUAAGAG [JR_ExcNG3_Sub098] (Eterna round: R96, puzzle: Exclusion NG 3)”, the “apparent KD of MS2 coat protein” value is 19.5 nM (input ligand: FMN 200 uM), 9.73 nM under setting [1] and 24.4 nM (input ligand: none).

For the sequence “AAUUAACAAGCAGGAUCCUACAUGAGGAUCACCCAUGUGCUCGUCUUAUAAAGUACUAUCACGAAAGUGAUAGUACA [Mat - Sensor v3 - turn-off var 1 - Eli Mod - D74] (puzzle: Sensor v3, turn-off variant 1)”, the “apparent KD of MS2 coat protein” value under setting [2] amounted to 224 nM, the “apparent KD of MS2 coat protein” value under setting [3] was determined as 566 nM and the “apparent KD of MS2 coat protein” value under setting [4] turned out to be 197 nM.

Regarding “AAUUAACAAGCGAGAUCCUACAUGAGGAUCACCCAUGUGCUCGUCUUAUAAAGUACUAUCACGAAAGUGAUAGUACA [Mat - Sensor v3 - turn-off var 1 - Eli Mod - D64] (puzzle: Sensor v3, turn-off variant 1)”, the “apparent KD of MS2 coat protein” value reads like this: under setting [2], 21.8 nM; under setting [3], 215 nM; under setting [4], 19.5 nM.

Consider “AAUUAACAUCAGGAUAUGACUAGCCUCGGCUAGUCAGAAGGGAUGACAUGAGGAUCACCCAUGUGAUCAAUUAA [E6/2-A2] (Eterna round: R97, puzzle: Exclusion 6)”, for which the “apparent KD of MS2 coat protein” value was 392 nM (input ligand: FMN 200 uM) and 108 nM (input ligand: none).

Consider “AAUUAGCAAGCGAGAUCCCACAUGAGGAUCACCCAUGUGCUCGUCUUAUAAGGUACUGUGACAAAAGUCACGGUACC [Mat - Sensor, turn-off var - Eli Mod - D18] (Eterna round: R97, puzzle: Sensor, turn-off variant 1)”, for which the “apparent KD of MS2 coat protein” value reads like this: (input ligand: FMN 200 uM) 17.9 nM; (input ligand: none) 18.1 nM.

As to “AAUUAGUGAGGAUAUACUAACAGUGAUAGUAGAUAGUGGAUGUAGAAGGCACAUGAGGAUCACCCAUGUUAUAA [EX4 #51] (Eterna round: R97, puzzle: Exclusion 4)”, the “apparent KD of MS2 coat protein” value runs as follows: (input ligand: FMN 200 uM) 39.1 nM; (input ligand: none) 33.5 nM.

As for “AAUUAUUAUUGAGGAUAUCGUAGUGAAACACUACGAGAAGGCGGUAUAAACAUGAGGAUCACCCAUGUGAGCCUGAUGCUUAUG [Ex NG1 #44] (Eterna round: R96, puzzle: Exclusion NG 1)”, the “apparent KD of MS2 coat protein” value under setting [1] was 20.6 nM.

Regarding “AAUUAUUAUUGAGGAUAUCGUAUUGAAACAAUACGAGAAGGCGGAAUAAACAUGAGGAUCACCCAUGUGAGCCUGAUGCUUAUG [Ex NG1 #43] (Eterna round: R96, puzzle: Exclusion NG 1)”, the “apparent KD of MS2 coat protein” value under setting [1] was 21.1 nM.

Regarding “AAUUAUUGAUGAGGAUAUUGUGGUGAAACACGACAAGAAGGCAUUUUUCACAUGAGGAUCACCCAUGUGAGCCUUGUGCAUAUA [Ex NG1 #62] (Eterna round: R96, puzzle: Exclusion NG 1)”, the “apparent KD of MS2 coat protein” value runs as follows: (input ligand: FMN 200 uM) 17.3 nM; under setting [1], 11.5 nM; (input ligand: none) 15.2 nM.

Take “AAUUCACAUGAGGAUCACCCAUGUCAGGAUAUGGUGACGCGGGUUUCGGUGCGUGUUGCCAGAAGGGACGGCUG (puzzle: Exclusion 1)”: under setting [3], the “apparent KD of MS2 coat protein” value was 92.4 nM.

With “AAUUCACAUGAGGAUCACCCAUGUGAGGAUAUGGUUUCGCUGGCCGUAGCCAGUGGAACCAGAAGGCGCAUGAU [Mat - Exclusion 1 - JL Mod - D11] (Eterna round: R97, puzzle: Exclusion 1)”, the “apparent KD of MS2 coat protein” value came out at 30.7 nM (input ligand: FMN 200 uM) and 28.9 nM (input ligand: none).

“AAUUUACAUGAGGAUCACCCAUGUGAGGAUAUAUGCAAACAAUUUUUAUUAAUAAAGCAUAGAAGGCGCGUGAU [JR_Exc1_Sub043] (Eterna round: R97, puzzle: Exclusion 1)”: the “apparent KD of MS2 coat protein” value runs as follows: (input ligand: FMN 200 uM) 90.5 nM; (input ligand: none) 65.7 nM.

“ACAAAGGUAGGAUAUCGGACUAUGGACAUGAGGAUCACCCAUGUGCGUCCAAUGCCCAACCGAGAAGGACCAACAG [Isindiedbe] (puzzle: Exclusion 5)”: under setting [3], the “apparent KD of MS2 coat protein” value amounted to 43.7 nM.

Take “ACAACAUGAGGAUCACCCAUGUGUGUUGUCCCAUGUGUGUAUAAGGAUAUAUGAAGGAAGGAGGAAUAGAAGGUAUAGAAGGAG [Am I even doing this right] (Eterna round: R96, puzzle: Exclusion NG 3)”: the “apparent KD of MS2 coat protein” value (input ligand: FMN 200 uM) came out at 84.1 nM, the “apparent KD of MS2 coat protein” value under setting [1] stood at 9.25 nM and the “apparent KD of MS2 coat protein” value (input ligand: none) was 1200 nM.

“ACAACCGGAGGAUAUACGUAUUCAUCACUCAACGCGGAACGACAUGAGGAUCACCCAUGUAGAAGGCCGAGAGU [EX2 B.24] (Eterna round: R97, puzzle: Exclusion 2)”: the “apparent KD of MS2 coat protein” value (input ligand: FMN 200 uM) was determined as 13.5 nM and the “apparent KD of MS2 coat protein” value (input ligand: none) came to 16 nM.

For “ACAACUGUUCCCAAGCUUUACAUGAGGAUCACCCAUGUUCGUCAAGAUUUGUACCAUCUAACGUAUGGCUCAAGUAC [Eternabot (L1) Solution 48] (Eterna round: R97, puzzle: Sensor, turn-off variant 1)”, the “apparent KD of MS2 coat protein” value is, setting by setting: (input ligand: FMN 200 uM) 23 nM; (input ligand: none) 24.6 nM.

As for “ACAAGAUCGGAAGGAUAUUGUACAUGAGGAUCACCCAUGUAAUAAAUGAGGAUCACGGAUGUAGACAAGAAGGUCCGGAUAAGA [Ostracism 4 - Jieux - Exclusion NG 2] (Eterna round: R96, puzzle: Exclusion NG 2)”, the “apparent KD of MS2 coat protein” value runs as follows: (input ligand: FMN 200 uM) 45.6 nM; under setting [1], 30.8 nM; (input ligand: none) 36.2 nM.

Regarding “ACAAGCUCUGUGGGUGGUGACAUGAGGAUCACCCAUGUUUUGCUCGUCUUGUGCCGGGCCCGGCGCCCGGGCCCGGC [-40.5, -69.4, A 8%] (Eterna round: R97, puzzle: Sensor, turn-off variant 1)”, the “apparent KD of MS2 coat protein” value worked out at 261 nM (input ligand: FMN 200 uM) and 715 nM (input ligand: none).
